# T1: In-house produced Avi-tagged CEACAM5 (UniProt P06731 35-685)
# T1 chain: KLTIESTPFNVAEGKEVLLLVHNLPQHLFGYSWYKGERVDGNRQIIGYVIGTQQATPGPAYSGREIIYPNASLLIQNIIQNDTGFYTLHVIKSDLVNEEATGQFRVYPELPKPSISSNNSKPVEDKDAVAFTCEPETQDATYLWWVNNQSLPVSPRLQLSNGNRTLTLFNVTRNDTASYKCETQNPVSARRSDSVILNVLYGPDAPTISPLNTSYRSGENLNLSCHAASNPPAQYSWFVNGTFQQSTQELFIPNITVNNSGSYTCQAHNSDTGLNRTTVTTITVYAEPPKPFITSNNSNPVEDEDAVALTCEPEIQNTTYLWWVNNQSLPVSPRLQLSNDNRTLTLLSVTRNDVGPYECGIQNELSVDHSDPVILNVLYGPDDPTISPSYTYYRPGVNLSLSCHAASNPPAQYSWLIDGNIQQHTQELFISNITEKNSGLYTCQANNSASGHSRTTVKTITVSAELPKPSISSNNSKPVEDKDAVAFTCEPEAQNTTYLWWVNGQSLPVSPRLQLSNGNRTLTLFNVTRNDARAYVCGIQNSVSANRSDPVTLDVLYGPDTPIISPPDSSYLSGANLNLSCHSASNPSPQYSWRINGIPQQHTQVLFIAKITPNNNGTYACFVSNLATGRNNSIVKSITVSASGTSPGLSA
# T2: In-house produced Avi-tagged N256A mutated CEACAM5 (UniProt P06731 35-685)
# T2 chain: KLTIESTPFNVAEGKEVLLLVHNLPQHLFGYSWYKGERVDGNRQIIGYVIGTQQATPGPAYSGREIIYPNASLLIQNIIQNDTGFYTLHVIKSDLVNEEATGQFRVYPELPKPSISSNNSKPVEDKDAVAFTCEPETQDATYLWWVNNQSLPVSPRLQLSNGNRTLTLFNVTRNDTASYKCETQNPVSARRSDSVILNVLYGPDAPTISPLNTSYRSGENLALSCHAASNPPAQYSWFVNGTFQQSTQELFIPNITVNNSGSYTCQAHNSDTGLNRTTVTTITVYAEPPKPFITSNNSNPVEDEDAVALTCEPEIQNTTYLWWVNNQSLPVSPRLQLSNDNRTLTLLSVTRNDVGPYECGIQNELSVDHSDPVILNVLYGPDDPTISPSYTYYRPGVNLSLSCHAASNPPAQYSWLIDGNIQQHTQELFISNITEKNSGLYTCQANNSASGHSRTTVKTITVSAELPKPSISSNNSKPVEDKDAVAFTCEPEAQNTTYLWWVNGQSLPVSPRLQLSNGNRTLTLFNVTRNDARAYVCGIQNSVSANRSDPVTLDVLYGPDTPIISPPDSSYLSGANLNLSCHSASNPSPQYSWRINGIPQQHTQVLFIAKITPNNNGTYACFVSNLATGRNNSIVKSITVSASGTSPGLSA
# T3: In-house produced Avi-tagged N256A mutated CEACAM6 (UniProt P40199 35-320)
# T3 chain: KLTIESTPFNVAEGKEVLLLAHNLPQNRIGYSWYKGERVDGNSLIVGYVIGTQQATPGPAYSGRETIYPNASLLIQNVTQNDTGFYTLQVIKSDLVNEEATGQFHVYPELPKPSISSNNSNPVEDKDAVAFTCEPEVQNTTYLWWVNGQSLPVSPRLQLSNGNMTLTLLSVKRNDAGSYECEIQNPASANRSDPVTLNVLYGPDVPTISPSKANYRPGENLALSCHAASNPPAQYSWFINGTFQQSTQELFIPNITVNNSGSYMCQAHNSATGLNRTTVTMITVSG
# T4: In-house produced Avi-tagged CEACAM6 (UniProt P40199 35-320)
# T4 chain: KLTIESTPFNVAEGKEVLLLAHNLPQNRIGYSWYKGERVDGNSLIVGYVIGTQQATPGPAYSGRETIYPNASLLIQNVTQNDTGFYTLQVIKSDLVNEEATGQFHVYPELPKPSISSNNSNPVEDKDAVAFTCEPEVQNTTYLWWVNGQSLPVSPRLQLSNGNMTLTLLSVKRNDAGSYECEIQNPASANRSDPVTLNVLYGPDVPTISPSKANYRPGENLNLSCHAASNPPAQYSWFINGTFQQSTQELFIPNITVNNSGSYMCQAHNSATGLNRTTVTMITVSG
# How the values were obtained:
# Assay in all cases: BLI
# [1] = target: CEACAM5 (UniProt P06731)
# [2] = target: CEACAM5 N256A (UniProt P06731)
# [3] = target: CEACAM6 (UniProt P40199)
# [4] = target: CEACAM6 N256A (UniProt P40199)
# [5] = target: T1, In-house produced Avi-tagged CEACAM5
# [6] = target: T2, In-house produced Avi-tagged N256A …
# [7] = target: T3, In-house produced Avi-tagged N256A …
# [8] = target: T4, In-house produced Avi-tagged CEACAM6
Molecule,Kd [1] [nM],Kd [2] [nM],Kd [3] [nM],Kd [4] [nM],Kd [5] [nM],Kd [6] [nM],Kd [7] [nM],Kd [8] [nM]
Tusamitamab,1.37,1.27,,,,,,
NEO-201,0.321,0.401,0.126,0.217,,,,
"AB1 antibody (antibody, V domains shown) VH: QVQLVQSGAEVKKPGASVKVSCKASGNTFTSYVMHWVRQAPGQGLEWMGYINPYNDGTKYNEKFKGRVTMTRDTSTSTVYMELSSLRSEDTAVYYCARSTARATPYFYAMDYWGQGTLVTVSS VL: DIVMTQSPDSLAVSLGERATINCKSSQSLLWSVNQNSYLSWYQLKPGQPPKLLLYGASIRESGVPDRFSGSGSGTDFTLTISSLQAEDVAVYYCQHNHGSFLPYTFGGGTKLEIKR",,,,,63.8,> 200,3180,71.5
"EBC-123 (antibody, V domains shown) VH: QVQLVQSGAEVKKPGASVKVSCKASGNTFTSYVMHWVRQAPGQGLEWMGYINPYNDGTKYNEKFKGRVTMTRDTSTSTVYMELSSLRSEDTAVYYCARSTARATPYFYAMDYWGQGTLVTVSS VL: DIVMTQSPDSLAVSLGERATINCKSSQSLLWSVNQNSYLSWYQLKPGQPPKLLLYGASIRESGVPDRFSGSGSGTDFTLTISSLQAEDVAVYYCQHNHGSFLPYTFGGGTKLEIKR",,,,,0.775,0.555,1.61,1.57
